Here are results for 2 substances from publication PMC3820850.

In assay [1] the target is PfEBA175 FL (entire ectodomain of P. falciparum 3D7 EBA175), Cd4-tagged and enzymatically biotinylated (P. falciparum (3D7)). In words: SPR; homophilic; biotinylated PfEBA175 FL immobilised on streptavidin chip, soluble PfEBA175 FL as analyte; quantified from the dissociation phase; 37 °C, HBS-EP. A general note: Surface plasmon resonance follows binding to a sensor surface in real time, without labels.

Assay [2] addresses native glycophorin-A extracted from human erythrocytes, chemically biotinylated (human) (UniProt P02724). Description: SPR; kinetic; biotinylated GYPA immobilised on streptavidin chip; analyte injected at 100 μl/min; 37 °C, HBS-EP; nonlinear fit of association and dissociation phases.
Assay [3] has the same target. Description: SPR; equilibrium; biotinylated GYPA immobilised on streptavidin chip, biotinylated Cd4 tag as reference; SEC-separated analyte injected at 20 μl/min; BIAcore T100, 37 °C, HBS-EP; steady-state 1:1 fit.
Assay [4] addresses PfEBA175 FL (entire ectodomain of P. falciparum 3D7 EBA175), Cd4-tagged and enzymatically biotinylated (P. falciparum (3D7)). In words: SPR; equilibrium; biotinylated PfEBA175 FL immobilised, serial dilutions of PfEBA175 FL or RII injected; responses at equilibrium as a fraction of calculated Rmax; 37 °C, HBS-EP.

pKd: −log10 of the molar value.

By koff is commonly meant the first-order rate constant of dissociation. Read a low koff as a long-lived complex. Broadly, the kon is a measure of how fast the partners come together. Higher therefore signals faster complex formation. The term pKd denotes the negative decadic logarithm of the Kd, by convention in mol/L. A higher pKd goes with a low Kd. Take “PfEBA175 FL (entire ectodomain of P. falciparum 3D7 EBA175), Cd4- and hexa-His-tagged, soluble (domain or fragment)”: the koff in assay [1] is 0.04 s⁻¹; in assay [2], 0.0968 s⁻¹. For the same substance, the kon in assay [2] amounted to 860000 M⁻¹ s⁻¹. The pKd in assay [3] is 6.59.
For “PfEBA175 RII (region II, tandem DBL domains F1 and F2), Cd4- and hexa-His-tagged, soluble (domain or fragment)”, in assay [4], the fold weaker binding affinity to PfEBA175 FL than that of PfEBA175 FL was 70 fold. In assay [3], this substance gave a pKd of 5.60.
